# Article PMC7922766
# Molecular target: Full-length recombinant human SIRT1 (human) (UniProt Q96EB6)
# Chain of UniProt Q96EB6 (Q96EB6 whole entry): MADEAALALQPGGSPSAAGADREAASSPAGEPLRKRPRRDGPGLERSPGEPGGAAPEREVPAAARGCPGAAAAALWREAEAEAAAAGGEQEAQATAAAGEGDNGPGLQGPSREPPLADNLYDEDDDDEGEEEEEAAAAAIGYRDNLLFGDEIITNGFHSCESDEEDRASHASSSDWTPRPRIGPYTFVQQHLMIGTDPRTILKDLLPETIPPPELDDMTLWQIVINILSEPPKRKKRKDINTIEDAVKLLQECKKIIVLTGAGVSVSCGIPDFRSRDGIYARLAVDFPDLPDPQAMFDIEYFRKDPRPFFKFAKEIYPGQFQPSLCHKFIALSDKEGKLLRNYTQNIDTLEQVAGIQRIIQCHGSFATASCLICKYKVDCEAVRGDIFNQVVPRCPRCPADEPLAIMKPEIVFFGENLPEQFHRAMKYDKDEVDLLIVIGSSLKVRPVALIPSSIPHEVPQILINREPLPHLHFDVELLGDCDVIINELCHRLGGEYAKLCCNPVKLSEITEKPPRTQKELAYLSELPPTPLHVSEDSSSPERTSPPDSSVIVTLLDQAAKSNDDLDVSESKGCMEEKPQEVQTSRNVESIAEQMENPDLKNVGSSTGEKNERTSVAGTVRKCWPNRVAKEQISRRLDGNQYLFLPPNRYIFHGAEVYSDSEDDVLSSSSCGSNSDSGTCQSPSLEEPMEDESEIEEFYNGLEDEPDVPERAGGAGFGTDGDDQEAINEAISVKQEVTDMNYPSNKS
substance,measurement,value
H4K16Ac synthetic peptide,"Km of the peptide substrate in SIRT1-catalysed deacetylation (HPLC assay, 500 uM NAD+, 0.5 uM SIRT1, 100 mM phosphate pH 7.5, 37 °C)",46.4 µM
